Source: article PMC10516938, “Conformational dynamics of cohesin/Scc2 loading complex are regulated by Smc3 acetylation and ATP binding” (Nature Communications, 2023)
Positions count from the first letter of the chain named. In names and notes the source's numbering stands. Values belong to the binder of their own block, whether it stands above or below them.

Tests used:
Assay in all cases: cross-linking; in vivo BMOE cross-link of cysteine pairs in yeast cells arrested in late G1 by non-degradable Sic1(9m); Scc1-PK immunoprecipitated, western blot, band intensities quantified
Conditions in all cases: partners not purified
Smc3^QQ S72C = target: T1, Smc3^QQ S72C (S. cerevisiae, UniProt P47037 1-1230, S72C | K112Q | K113Q)
T1 construct: Smc3, S. cerevisiae; source: S. cerevisiae W303, late G1 arrested cells, whole-cell extract
T1 sequence (looked up): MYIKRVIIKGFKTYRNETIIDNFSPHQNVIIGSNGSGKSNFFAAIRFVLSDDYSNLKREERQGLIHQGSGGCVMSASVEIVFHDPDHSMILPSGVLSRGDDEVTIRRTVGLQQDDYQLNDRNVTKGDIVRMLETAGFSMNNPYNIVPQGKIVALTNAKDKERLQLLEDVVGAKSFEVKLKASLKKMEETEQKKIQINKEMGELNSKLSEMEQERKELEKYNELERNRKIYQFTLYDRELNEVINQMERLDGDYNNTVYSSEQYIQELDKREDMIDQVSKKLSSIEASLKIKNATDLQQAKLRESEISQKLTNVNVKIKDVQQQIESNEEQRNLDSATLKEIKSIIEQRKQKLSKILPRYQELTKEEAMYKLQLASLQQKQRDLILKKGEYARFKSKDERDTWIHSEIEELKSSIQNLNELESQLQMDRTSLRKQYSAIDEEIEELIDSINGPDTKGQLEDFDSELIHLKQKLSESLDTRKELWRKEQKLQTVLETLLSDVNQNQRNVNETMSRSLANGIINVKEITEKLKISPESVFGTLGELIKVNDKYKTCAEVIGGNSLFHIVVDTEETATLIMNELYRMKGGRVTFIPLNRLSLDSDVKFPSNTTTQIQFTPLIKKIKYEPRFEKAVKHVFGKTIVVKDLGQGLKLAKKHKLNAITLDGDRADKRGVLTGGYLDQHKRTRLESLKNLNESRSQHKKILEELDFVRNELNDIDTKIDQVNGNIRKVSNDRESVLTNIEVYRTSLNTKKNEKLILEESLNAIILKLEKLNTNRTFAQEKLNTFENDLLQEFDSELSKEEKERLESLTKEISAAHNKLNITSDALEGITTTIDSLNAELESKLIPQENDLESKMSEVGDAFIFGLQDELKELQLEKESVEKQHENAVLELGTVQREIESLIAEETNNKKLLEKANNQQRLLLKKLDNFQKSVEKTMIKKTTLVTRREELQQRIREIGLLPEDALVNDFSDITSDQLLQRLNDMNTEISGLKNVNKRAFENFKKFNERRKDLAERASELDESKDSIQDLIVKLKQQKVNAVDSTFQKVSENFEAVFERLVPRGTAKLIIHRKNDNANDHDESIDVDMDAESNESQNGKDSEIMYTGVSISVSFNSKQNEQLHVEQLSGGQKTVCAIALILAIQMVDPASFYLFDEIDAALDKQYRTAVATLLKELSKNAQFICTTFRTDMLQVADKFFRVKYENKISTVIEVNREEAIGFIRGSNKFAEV

Smc3 S72C E1155Q = target: T2, Smc3 S72C E1155Q (S. cerevisiae, UniProt P47037 1-1230, S72C | E1155Q)
T2 construct: Smc3, S. cerevisiae; also called EQ mutant version of Smc3^S72C; source: S. cerevisiae W303, ectopically expressed, late G1 arrested cells, whole-cell extract
T2 sequence (looked up): T1 sequence (looked up) with Q112K, Q113K, E1155Q

Smc3^E1155Q Q67C K1004C = target: T3, Smc3^E1155Q Q67C K1004C (S. cerevisiae, UniProt P47037 1-1230, Q67C | K1004C | E1155Q)
T3 construct: Smc3, S. cerevisiae, ATP hydrolysis mutant; source: S. cerevisiae W303, late G1 arrested cells, whole-cell extract
T3 sequence (looked up): T1 sequence (looked up) with Q67C, C72S, Q112K, Q113K, K1004C, E1155Q

crosslinking efficiency relative to wild type (Smc3^QQ S72C): ~10%
fold change of the crosslink against wild-type Smc3 (S72C) (Smc3 S72C E1155Q): ~2 fold
B1: Scc2 E819C (natural protein, S. cerevisiae, UniProt Q04002 1-1493, looked up)
chain: MSYPGKDKNIPGRIIEALEDLPLSYLVPKDGLAALVNAPMRVSLPFDKTIFTSADDGRDVNINVLGTANSTTSSIKNEAEKERLVFKRPSNFTSSANSVDYVPTNFLEGLSPLAQSVLSTHKGLNDSINIEKKSEIVSRPEAKHKLESVTSNAGNLSFNDNSSNKKTKTSTGVTMTQANLAEQYLNDLKNILDIVGFDQNSAEIGNIEYWLQLPNKKFVLTTNCLTKLQMTIKNITDNPQLSNSIEITWLLRLLDVMVCNIKFSKSSLKMGLDDSMLRYIALLSTIVLFNIFLLGKNDSNLHRESYIMEPVNFLSDLIESLKILTIEYGSLKIEFDTFQEALELLPKYIRNGPFLDDNVTAKLVYIFSDLLMNNDIEATTNIQFQSFWDNVKRISSDILVSLFGSFDQQRGFIIEELLSHIEKLPTKRIQKKLRKVGNQNIYITDFTFTLMSMLENINCYSFCNQMKDIAPENIDLLKNEYKKQEEFLFNIVEHINDTILERFFKNPSALRYVIDNFVQDLLLLISSPQWPVTEKILSSLLKRLLSVYSPSMQVSANIETICLQLIGNIGSTIFDIKCSTRDHEDNNLIKMINYPETLPHFFKSFEECIAYNETIKCRRSATRFLWNLRLGTILILEEYTKDAKEQIITVDNELKKILEQIKDGGLGPELENREADFSTIKLDYFSILHAFELLNLYDPYLKLILSLLAKDKIKLRSTAIKCLSMLASKDKVILSNPMVKETIHRRLNDSSASVKDAILDLVSINSSYFEFYQQINNNYNDDSIMVRKHVLRINEKMYDETNDIVTKVYVIARILMKICDEEDNIIDMARLILLNRWILKVHEVLDQPEKLKEISSSVLLVMSRVAIMNEKCSQLFDLFLNFYLLNKEAHSKEAYDKITHVLTILTDFLVQKIVELNSDDTNEKNSIVDKQNFLNLLAKFADSTVSFLTKDHITALYPYMVSDEKSDFHYYILQVFRCTFEKLANFKQKFLYDLETTLLSRLPKMNVREIDEAMPLIWSVATHRHDTARVAKACSSCLSHLHPYINKANNEEAAIVVDGKLQRLIYLSTGFARFCFPKPSNDKIAFLQEGETLYEHITKCLLVLSKDKITHVIRRVAVKNLTKLCGNHPKLFNSRHVLHLLDKEFQSDQLDIKLVILESLYDLFLLEERKSVRNTGVNSTLSSNSILKKKLLKTNRVEFANDGVCSALATRFLDNILQLCLLRDLKNSLVAIRLLKLILKFGYTNPSHSIPTVIALFASTSQYIRHVAYELLEDLFEKYETLVFSSLSRGVTKAIHYSIHTDEKYYYKHDHFLSLLEKLCGTGKKNGPKFFKVLKRIMQSYLDDITDLTSTNSSVQKSIFVLCTNISNITFVSQYDLVSLLKTIDLTTDRLKEVIMDEIGDNVSSLSVSEEKLSGIILIQLSLQDLGTYLLHLYGLRDDVLLLDIVEESELKNKQLPAKKPDISKFSAQLENIEQYSSNGKLLTYFRKHVKDT
notes: Scc2, S. cerevisiae; source: S. cerevisiae W303, in vivo, whole-cell extract

double crosslink band relative to that of smc3 S72C K1004C E1155Q with scc2 E819C D369C (Smc3^E1155Q Q67C K1004C): ~15%
B2: Scc2 D369C T1175C (natural protein, S. cerevisiae, UniProt Q04002 1-1493, looked up)
chain: B1 chain with D369C, C819E, T1175C
notes: Scc2, S. cerevisiae; source: S. cerevisiae W303, late G1 arrested cells, whole-cell extract
